{"source": "patent US6703362", "about": "(CYTOGEN, dated 2004)", "binders": {"B1": {"name": "P90 (peptide)", "peptide": "SSADAEKCAGSLLWWGRQNNSGCGSPTKKHLKHRNRSQTSSSSHAETVESCLAKPHTENSFTNVWKDDKTLDRYANYEGCLWNATGVVVCTGDETQCYGTWVPIGLAIPENEGGGSEGGGSEGGGSEGGGTKPPEYGDTPIPGYTYINPLDGTYPPGTEQNPANPNPSLEESQPLNTFMFQNNRFRNRQGALTVYTGTVTQGTDPVKTYYQYTPVSSKAMYDAYWNGKFRDCAFHSGFNEDPFVCEYQGQSSDLPQPPVNAGGGSGGGSGGGSEGGGSEGGGSEGGGSEGGGSGGGSGSGDFDYEKMANANKGAMTENADENALQSDAKGKLDSVATDYGAAIDGFIGDVSGLANGNGATGDFAGSNSQMAQVGDGDNSPLMNNFRQYLPSLPQSVECRPFVFSAGKPYEFSIDCDKINLFRGVFAFLLYVATFMYVFSTFANILRNKES", "notes": "Assayed as M13 phage clone displaying the insert"}, "B2": {"name": "HAX42 (peptide)", "peptide": "SDHALGTNLRSDNAKEPGDYNCCGNGNSTGRKVFNRRRPSAIPTAETVESCLAKPHTENSFTNVWKDDKTLDRYANYEGCLWNATGVVVCTGDETQCYGTWVPIGLAIPENEGGGSEGGGSEGGGSEGGGTKPPEYGDTPIPGYTYINPLDGTYPPGTEQNPANPNPSLEESQPLNTFMFQNNRFRNRQGALTVYTGTVTQGTDPVKTYYQYTPVSSKAMYDAYWNGKFRDCAFHSGFNEDPFVCEYQGQSSDLPQPPVNAGGGSGGGSGGGSEGGGSEGGGSEGGGSEGGGSGGGSGSGDFDYEKMANANKGAMTENADENALQSDAKGKLDSVATDYGAAIDGFIGDVSGLANGNGATGDFAGSNSQMAQVGDGDNSPLMNNFRQYLPSLPQSVECRPFVFSAGKPYEFSIDCDKINLFRGVFAFLLYVATFMYVFSTFANILRNKES", "notes": "as for B1"}, "B3": {"name": "DAB10 (peptide)", "peptide": "SKSGEGGDSSRGETGWARVRSHAMTAGRFRWYNQLPSDRAETVESCLAKPHTENSFTNVWKDDKTLDRYANYEGCLWNATGVVVCTGDETQCYGTWVPIGLAIPENEGGGSEGGGSEGGGSEGGGTKPPEYGDTPIPGYTYINPLDGTYPPGTEQNPANPNPSLEESQPLNTFMFQNNRFRNRQGALTVYTGTVTQGTDPVKTYYQYTPVSSKAMYDAYWNGKFRDCAFHSGFNEDPFVCEYQGQSSDLPQPPVNAGGGSGGGSGGGSEGGGSEGGGSEGGGSEGGGSGGGSGSGDFDYEKMANANKGAMTENADENALQSDAKGKLDSVATDYGAAIDGFIGDVSGLANGNGATGDFAGSNSQMAQVGDGDNSPLMNNFRQYLPSLPQSVECRPFVFSAGKPYEFSIDCDKINLFRGVFAFLLYVATFMYVFSTFANILRNKES", "notes": "as for B1"}, "B4": {"name": "HAX40 (peptide)", "peptide": "REFAERRLWGCDDLSWRLDAEGCGPTPSNRAVKHRKPRPRSPALAETVESCLAKPHTENSFTNVWKDDKTLDRYANYEGCLWNATGVVVCTGDETQCYGTWVPIGLAIPENEGGGSEGGGSEGGGSEGGGTKPPEYGDTPIPGYTYINPLDGTYPPGTEQNPANPNPSLEESQPLNTFMFQNNRFRNRQGALTVYTGTVTQGTDPVKTYYQYTPVSSKAMYDAYWNGKFRDCAFHSGFNEDPFVCEYQGQSSDLPQPPVNAGGGSGGGSGGGSEGGGSEGGGSEGGGSEGGGSGGGSGSGDFDYEKMANANKGAMTENADENALQSDAKGKLDSVATDYGAAIDGFIGDVSGLANGNGATGDFAGSNSQMAQVGDGDNSPLMNNFRQYLPSLPQSVECRPFVFSAGKPYEFSIDCDKINLFRGVFAFLLYVATFMYVFSTFANILRNKES", "notes": "Assayed as M13 phage clone displaying the insert; also called H44"}, "B5": {"name": "HAX9 (peptide)", "peptide": "SREEANWDGYKREMSHRSRFWDATHLSRPRRPANSGDPNAETVESCLAKPHTENSFTNVWKDDKTLDRYANYEGCLWNATGVVVCTGDETQCYGTWVPIGLAIPENEGGGSEGGGSEGGGSEGGGTKPPEYGDTPIPGYTYINPLDGTYPPGTEQNPANPNPSLEESQPLNTFMFQNNRFRNRQGALTVYTGTVTQGTDPVKTYYQYTPVSSKAMYDAYWNGKFRDCAFHSGFNEDPFVCEYQGQSSDLPQPPVNAGGGSGGGSGGGSEGGGSEGGGSEGGGSEGGGSGGGSGSGDFDYEKMANANKGAMTENADENALQSDAKGKLDSVATDYGAAIDGFIGDVSGLANGNGATGDFAGSNSQMAQVGDGDNSPLMNNFRQYLPSLPQSVECRPFVFSAGKPYEFSIDCDKINLFRGVFAFLLYVATFMYVFSTFANILRNKES", "notes": "as for B1"}, "B6": {"name": "5PAX5 (peptide)", "peptide": "RGSTGTAGGERSGVLNLHTRDNASGSGFKPWYPSNRGHKAETVESCLAKPHTENSFTNVWKDDKTLDRYANYEGCLWNATGVVVCTGDETQCYGTWVPIGLAIPENEGGGSEGGGSEGGGSEGGGTKPPEYGDTPIPGYTYINPLDGTYPPGTEQNPANPNPSLEESQPLNTFMFQNNRFRNRQGALTVYTGTVTQGTDPVKTYYQYTPVSSKAMYDAYWNGKFRDCAFHSGFNEDPFVCEYQGQSSDLPQPPVNAGGGSGGGSGGGSEGGGSEGGGSEGGGSEGGGSGGGSGSGDFDYEKMANANKGAMTENADENALQSDAKGKLDSVATDYGAAIDGFIGDVSGLANGNGATGDFAGSNSQMAQVGDGDNSPLMNNFRQYLPSLPQSVECRPFVFSAGKPYEFSIDCDKINLFRGVFAFLLYVATFMYVFSTFANILRNKES", "notes": "as for B1"}, "B7": {"name": "DCX8 (peptide)", "peptide": "RYKHDIGCDAGVDKKSSSVRGGCGAHSSPPRAGRGPRGTMVSRLAETVESCLAKPHTENSFTNVWKDDKTLDRYANYEGCLWNATGVVVCTGDETQCYGTWVPIGLAIPENEGGGSEGGGSEGGGSEGGGTKPPEYGDTPIPGYTYINPLDGTYPPGTEQNPANPNPSLEESQPLNTFMFQNNRFRNRQGALTVYTGTVTQGTDPVKTYYQYTPVSSKAMYDAYWNGKFRDCAFHSGFNEDPFVCEYQGQSSDLPQPPVNAGGGSGGGSGGGSEGGGSEGGGSEGGGSEGGGSGGGSGSGDFDYEKMANANKGAMTENADENALQSDAKGKLDSVATDYGAAIDGFIGDVSGLANGNGATGDFAGSNSQMAQVGDGDNSPLMNNFRQYLPSLPQSVECRPFVFSAGKPYEFSIDCDKINLFRGVFAFLLYVATFMYVFSTFANILRNKES", "notes": "as for B1"}, "B8": {"name": "DAX23 (peptide)", "peptide": "REWRFAGPPLDLWAGPSLPSFNASSHPRALRTYWSQRPRAETVESCLAKPHTENSFTNVWKDDKTLDRYANYEGCLWNATGVVVCTGDETQCYGTWVPIGLAIPENEGGGSEGGGSEGGGSEGGGTKPPEYGDTPIPGYTYINPLDGTYPPGTEQNPANPNPSLEESQPLNTFMFQNNRFRNRQGALTVYTGTVTQGTDPVKTYYQYTPVSSKAMYDAYWNGKFRDCAFHSGFNEDPFVCEYQGQSSDLPQPPVNAGGGSGGGSGGGSEGGGSEGGGSEGGGSEGGGSGGGSGSGDFDYEKMANANKGAMTENADENALQSDAKGKLDSVATDYGAAIDGFIGDVSGLANGNGATGDFAGSNSQMAQVGDGDNSPLMNNFRQYLPSLPQSVECRPFVFSAGKPYEFSIDCDKINLFRGVFAFLLYVATFMYVFSTFANILRNKES", "notes": "as for B1"}}, "key": {"[1]": {"target": "T1, hPEPT1 receptor domain (human PEPT1, amino acid residues 391-571), His-tag fusion protein (human, UniProt P46059 391-571)", "T1 construct": "purified under denaturing conditions; also called recombinant hPEPT1; not shown: poly-histidine tag (pET vector) at the NH2-terminal end", "T1 sequence": "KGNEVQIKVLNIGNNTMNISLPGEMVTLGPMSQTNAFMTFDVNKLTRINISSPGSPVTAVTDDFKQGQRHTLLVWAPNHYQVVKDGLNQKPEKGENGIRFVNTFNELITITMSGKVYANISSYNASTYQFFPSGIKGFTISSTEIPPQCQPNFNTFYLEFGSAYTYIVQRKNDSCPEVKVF", "experiment": "phage ELISA, OD on hPEPT1 over OD on BSA", "experimental": "(§1) 6.6. Receptor ELISA Procedure 96 well plates were coated overnight with GIT receptor, BSA and, optionally, IDE (insulin degrading enzyme, an irrelevant His-fusion protein)or hTF. The plates were blocked for one hour with 0.5% BSA-PBS. After clarification, the amplified phage were diluted 1:100 in […] plus 0.05% Tween 20 in PBS and added to the plates. Following incubation of the plates on a rotator for 1 to 2 hours, the plates were washed 5 times with 1% BSA plus 0.05% Tween 20 in PBS. […] After the plates were washed 5 times, as described above, TMB substrate was added to the wells. The plates were read at 650 nm absorbance."}, "[2]": {"target": "T1, hPEPT1 receptor domain (human PEPT1, …)", "experiment": "phage ELISA, plate coated with hPEPT1 domain"}, "[3]": {"target": "T2, HPT1 receptor domain (human intestinal peptide-associated transporter HPT1, amino acid residues 29-273), … (human, UniProt Q12864 29-273)", "T2 construct": "purified under denaturing conditions; also called recombinant HPT1; not shown: poly-histidine tag (pET vector) at the NH2-terminal end", "T2 sequence": "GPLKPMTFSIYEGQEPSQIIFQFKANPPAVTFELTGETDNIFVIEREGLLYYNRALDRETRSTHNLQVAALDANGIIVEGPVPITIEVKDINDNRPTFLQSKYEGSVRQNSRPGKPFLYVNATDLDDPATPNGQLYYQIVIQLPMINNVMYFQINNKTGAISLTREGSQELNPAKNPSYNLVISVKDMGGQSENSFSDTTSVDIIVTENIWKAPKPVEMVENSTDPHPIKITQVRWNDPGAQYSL", "experiment": "phage ELISA, OD on HPT1 over OD on BSA", "experimental": "as §1"}, "[4]": {"target": "T2, HPT1 receptor domain (human intestinal …)", "experiment": "phage ELISA, plate coated with HPT1 domain", "experimental": "as §1"}, "[5]": {"target": "T3, D2H receptor domain (human D2H transporter, amino acid residues 387-685), His-tag fusion protein (human, UniProt Q07837 387-685)", "T3 construct": "purified under denaturing conditions; also called recombinant D2H; not shown: poly-histidine tag (pET vector) at the NH2-terminal end", "T3 sequence": "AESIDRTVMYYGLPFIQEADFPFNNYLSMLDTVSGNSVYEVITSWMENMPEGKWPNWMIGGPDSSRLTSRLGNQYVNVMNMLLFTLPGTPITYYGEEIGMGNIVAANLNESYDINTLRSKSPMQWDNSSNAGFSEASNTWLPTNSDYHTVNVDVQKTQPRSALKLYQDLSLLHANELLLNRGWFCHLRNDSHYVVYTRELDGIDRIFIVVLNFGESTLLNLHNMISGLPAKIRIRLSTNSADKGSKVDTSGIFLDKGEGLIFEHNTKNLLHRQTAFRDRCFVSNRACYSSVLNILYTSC", "experiment": "phage ELISA, OD on D2H over OD on BSA", "experimental": "as §1"}, "[6]": {"target": "T3, D2H receptor domain (human D2H …)", "experiment": "phage ELISA, plate coated with D2H domain", "experimental": "as §1"}, "[7]": {"target": "T3, D2H receptor domain (human D2H …)", "experiment": "phage ELISA, OD on D2H over OD on BSA", "experimental": "as §1\n(§2) Binding to fixed Caco-2 cells, D2H and BSA was examined.", "remark": "listed apart in the source"}, "[8]": {"target": "T3, D2H receptor domain (human D2H …)", "experiment": "phage ELISA, plate coated with D2H domain", "experimental": "as §1, §2", "remark": "listed apart in the source"}}, "note": "Read-outs that look alike come from different tables or passages of the source.", "data": [{"binder": "B1", "values": [{"measurement": "PEPT1/BSA", "setting": "[1]", "value": 9, "unit": "ratio"}, {"measurement": "OD", "setting": "[2]", "value": 1.12, "unit": "OD"}]}, {"binder": "B2", "values": [{"measurement": "HPT/BSA", "setting": "[3]", "value": 5, "unit": "ratio"}, {"measurement": "OD", "setting": "[4]", "value": 0.32, "unit": "OD"}]}, {"binder": "B3", "values": [{"measurement": "D2H/BSA", "setting": "[5]", "value": 4, "unit": "ratio"}, {"measurement": "OD", "setting": "[6]", "value": 0.644, "unit": "OD"}]}, {"binder": "B4", "values": [{"measurement": "HPT/BSA", "setting": "[3]", "value": 15, "unit": "ratio"}, {"measurement": "OD", "setting": "[4]", "value": 0.991, "unit": "OD"}]}, {"binder": "B5", "values": [{"measurement": "HPT/BSA", "setting": "[3]", "value": 5, "unit": "ratio"}, {"measurement": "OD", "setting": "[4]", "value": 0.382, "unit": "OD"}]}, {"binder": "B6", "values": [{"measurement": "PEPT1/BSA", "setting": "[1]", "value": 4, "unit": "ratio"}, {"measurement": "OD", "setting": "[2]", "value": 0.15, "unit": "OD"}]}, {"binder": "B7", "values": [{"measurement": "D2H/BSA", "setting": "[7]", "value": 3, "unit": "ratio"}, {"measurement": "OD", "setting": "[8]", "value": 0.163, "unit": "OD"}]}, {"binder": "B8", "values": [{"measurement": "D2H/BSA", "setting": "[5]", "value": 5, "unit": "ratio"}, {"measurement": "OD", "setting": "[6]", "value": 0.698, "unit": "OD"}]}]}
